This note sets out measurements from the DeepSol protein solubility set.

This data set in a line: soluble on expression in E. coli; label from the status in PepcDB or PDB records.
As to “MEKNGYIDPYTTVMNYLSITPGKWEIKYNENIRGISGKEHRFDAVYRSQEGEIVTVMVVLRTEDLEKRLDDFKNGSKDVRAKRKFLIVCGEINSDMVSELKSENISILMLPGMFCSQVSSYNADAGSNDAPRSLPDGGIEESQRKRSRANIIMDLIRAINENSNQIPVTRLFYACNINHRMGRSIIEDLEHAGIVILRKTGPNRNVVELTRKGISLINDYEFIREILEK”, the “soluble on expression in E. coli” value was “not soluble”.
For “MDLIFSLGVMIMPLTPPASPKTERRSEEDNQQTNQQGNEQGNQQPRSSILTLFGFTPNALVMPCPHGHGHFHIMDIQADDTLVFATMNGSPEIMSLLALQFLMQNVNLNLDDMLAAETDAKEAEEKEEQELSSSESVNEEKEEAEFSSSESENEEKEEENEESSRFTM” the value was “not soluble”; for “MSLKKYMGIIVDAISRRQFKGEITVENGKIIRVEEKEHDNEQYILPGLVDAHVHIESSMTVPSVFARMAVAKGTVAVVSDPHEIANVMGEEGIEFMLEDSKKSPLKVYFGVPSCVPATPFESSGAVLDINAVDRLLAKDDLHYLSEMMNFPGVILEFPDVMAKLESARKHGKVIDGHAPGLRGADLQKYIGAGISTDHECFEYEEAREKIELGMKILIREGSSARNFETLYPLIDEYPDHVMLCTDDSHPDTLIYEGHIDKLIRRGQEKGLDIYNLIRTAVFNPVEHYGLNVGLLREGDPADFIIVDNLKSFNILSTFIDGECVYENGKVLFPLEKVPAKNVFNRNKISIDDVKLVPPAGAIQEQTTEKGIKKIRVIVANDGELVTGQELIVPKIENGNLVSDPERDILKMVVLSRYSDDPVRIGFIKNIGLEKGAIASSIAHDSHNIIAVGATDEDIVETVNRLIKNKGGIAVGTAENLLDLPLEVAGLMSTLEGEEVASRYHLLNEEARKLGTSLESPFMTLAFMSLLVIPELKLGDKGLFDVTKFEFVDLFADEGHHHHHH”, “soluble”; for “DMPVEKIQEAEMAVEPKDGNMVEQPNDPVTNICQAADKQLVTLVEWAKRIPHFSDLPIDDQVILLRAGWNELLIAAFSHRSIDVKDGILLASGLHVHRSSAHQAGVGTIFDRVLTELVAKMRDMKMDKTELGCLRAIVLFNPDAKGLTDPSLVESLREKVYASLEEYCKQQYPEQPGRFAKLLLRLPALRSIGLKCLEHLFFFKLIGDTPIDTFLMEML”, “soluble”.
As to “MAEGNTLISVDYEIFGKVQGVFFRKHTQAEGKKLGLVGWVQNTDRGTVQGQLQGPISKVRHMQEWLETRGSPKSHIDKANFNNEKVILKLDYSDFQIVG”, the “soluble on expression in E. coli” value is “soluble”.
In the case of “MSLSGAVFKTFLTSEHASWNRFNRRLHIPNEDIVDEIQLKARMQQRHHRVYPEIGDSTIVSFRGKDYAVHFIKDGPKDDYVYKVQRITPENGCFSTLFSVFSGGVTKALERKLNERHITPLSSTWFPRTPLEGILAERGLSSLLRRVQSTERLDNRAIATRASSYSVL”, the “soluble on expression in E. coli” value is reported as “not soluble”.
To “DQNAYHSIRTLLKSPTTLGEVKEHITHALTITPTKGSVINAFEHMWGYFKKQCTQYEKQHSRELKALYIENQIDYFELLSFLKNLADKYAVEYLQQSTILNITK” belongs “not soluble”; to “MKVNILMATYNGEKFLAQQIESIQKQTFKEWNLLIRDDGSSDKTCDIIRNFTAKDSRIRFINENEHHNLGVIKSFFTLVNYEVADFYFFSDQDDVWLPEKLSVSLEAAKHKASDVPLLVYTDLKVVNQELNILQDSMIRAQSHHANTTLLPELTENTVTGGTMMINHALAEKWFTPNDILMHDWFLALLAASLGEIIYLDLPTQLYRQHDNNVLGARTMDKRFKILREGPKSIFTRYWKLIHDSQKQASLIVDKYGDIMTANDLELIKCFIKIDKQPFMTRLRWLWKYGYSKNQFKHQVVFKWLIATNYYNKRLEHHHHHH”, “soluble”; to “MQIPHGELRTLTYHSNALKSERQMYVWTPPGYSESSKPLPVLYFYHGFGDTGASAVVQGRIPQMMDNLLAEKKIEPMLVVIPDTETDVPGIIPEEYPPQERRKVFYPRNALAADRELIHDIIPAIGKRFNVRQDANGRALAGLSQGGYQALVSGMSHLDHFGWLATFSGVTTETVPNMAVAAQLERPEQINQQLKNLTVVIGETDNITGKDIAGLKTMLEQKNIRFDYTHYPNLGHEMDVWRPAYSEFVQKLFKLEHHHHHH”, “not soluble”.
To “MSIAIIIGTHGAAAEQLLKTAEMILGEQSNVAYIDFVPGENAETLIEKYNDRLTGLDTSKGVLFLVDTWGGSPFNAASRIAIDKENYEVVTGVNIPMLAETFMARDDEPSFAELVAVAVETGREGVKALKAPDVKSDKPETQPAAPVPTAKAPAVALGPNDHMKIGLARIDDRLIHGQVATRWTKETNVNRIIVVSDEVAADKMRKTLLTQVAPPGVTAHVVDVEKAIRVYNNPKYANDRVMLLFTNPTDVVRLVEGGVDIKSVNIGGMAFRQGKTQVNNAVSIDEKDIEAFNKLNARGIELEVRKVSSDSRLKMMDLISKLNK” belongs “not soluble”; to “MSTEKEKMIAGELYRSADETLSRDRLRARQLIHRYNHSLAEEHTLRQQILADLFGQVTEAYIEPTFRCDYGYNIFLGNNFFANFDCVMLDVCPIRIGDNCMLAPGVHIYTATHPIDPVARNSGAELGKPVTIGNNVWIGGRAVINPGVTIGDNVVVASGAVVTKDVPDNVVVGGNPARIIKKL”, “not soluble”; to “MVSKIIKLGVPTATLAVGTLLLGDDEKRSAFFRTASAFTQNHGHKTFDEHFPRGEWDKNWDFRDPISLVDKGKWEKADEEGKKKLIEEKKATATRNIFLIRHGQYHLDHEVKMLTPLGREQAELLGKRLANSDIKFTNMTMSTMVRATETANIILKHLPDDLTRTSSPFIEEGPPYPPVPDHKTWRPLDPEFYTEAARIESAYRKIFHRASPSQKEDSFELIVCHANVIRYFICRALQFPPEGWLRMSLGNCSLTWITIRPKGHVSVRSIGDIGHLPPNKISFT”, “not soluble”.
To “MREIVSIHIGQAGVQIGNACWELYCLEHGITPDGLMPDDTSYGVEDQSYNTFFSETPSGKHVPRAIFVDLEPTVIDEVRTGTYAKLFHPEQLISGKEDAANNYARGHYTIGKELIDVVMDRVRRLTERCQSLQGFLIFHSFGGGTGSGFTSLVMERLSIDYGKKAKLEFSIYPAPQISTSMVEPYNSLLTTHTTLEHSDCSFIMDNEAIYEITKVNLGVRSPTYTHLNRLLAQVVSSITASLRFDGALNVDLTEFQTNLVPYPRIHFPLVTYAPIISAEKAYHEQLSVSEITNVCFEPGSQMVKCDPRNGKYMACCLLYRGDVVPKEINSAISTIKTKRAIQFVDWCPTGFKVGINYQPPTVVPGGDMAKLQRAVCMLSNTTAIQEAWARLDHKFDLMYAKRAFVHWYVGEGMEEGEFSEAREDMAALEKDYEEVGVDSFDPNDEEY” belongs “not soluble”; to “KQSKLTLMSESLRNDGRIWVPKKLEDAKALQAGTKKPTDIPDADRDFYLERRYPAFGNLVPRDVASRAAKERCDAGFGVNNTGLAVFLDFKYAIDRLGEDVVRARYGNLFDMYEEITDENPYKTPMMIFPA”, “soluble”.
For “MSLKAQRYASVLTLDNLTGRLVVVGDIHGCLAQLQGMLRAVSFKQGSDTLVAVGDLVNKGPDSFGVVRLLKRLGAHSVLGNHDVKLLKLVKKIREKGPLNERDTKSSLAPFALTVPVDVEVYLSQLPHIIRIPAHNVIMTHGGLHPQRPLDCQYIDEVTTLRNLIEKEQKAGGVTLVATPETKDGGVPWASLWRGPETVVFGHDSRRGLQEQYRPLAIGLDSGCVYGGRLSAAVFPGGHIVSVSGWRREAKEGHHHHHH”, the “soluble on expression in E. coli” value was “soluble”.
For “MSLRLNDWQLAFEAYLLGEQAQARAVLQDSLIGGPTLDVETGLAIYHNAYMARLQEVMGSDFPAIRHWLGDAEFQALTQAYIRQCPSRHFSLRWLGQGFAEFILGHLVPEQGAPLAELARLEWAFTLAFDAADAQVLTVAAMAGLDVEQWPQLQLRLAPCVQWLDCRYNSVAQWRAVKEQADFPRSALLDQQQLCLVWRADRVCRYRSLPAEEATALRGMIEQRWNFAELCVGLAVTYAEGAPLQAVTWLKQWVEDGLVMRSESEGHHHHHH” the value was “not soluble”.
For “MSVIDIHCHTAGVGAGGSGCFISTRLRESWRYRFYLASFGVTDAELEREGDGLVLRRLAERLAVSTRVQAAVVLALDGAIDSRGNLDQTRTELFIPNDFLSGQCRRYPNLLFGASVNPLRPDALDRLDAAAAASAVLVKWLPSIQGTDPADRRLVPFYRRLAELGLPLLTHTGEEQSFTRADNSLSDPNRLRLPLDEGVTVIAAHCATSGRSEGQRNRHRLLALFAAYPNLHADISSLTQVNRLGHLQWVLKHRELHERLLYGTDMPLPATALTSPWFHLFSLGPFAARRLAAIRNPWDRDVALKLALGMPEQILHNAAGLLRLALEHHHHHH” the value was “not soluble”; for “MGSDKIHHHHHHMKVLVVDDDKLARKGLISIMDWKKYGFEVVGDVQNGRKALEFLKDNEVDIVFTDIDMPEIDGIELMKMCKKEYPEVKFVVFSMYEDFRYAQSALRLGALDYISKISFEGDECDRILELVERKYKENHSQKETRNEDSELIKRLEKAWMNTRWIFNDSEFNRLYELTRGVELRTAERVFIKSFHSLQKLTGEELEFPSLSSVDSMLEWVKQWKENLYQTCLQTDKTKDIYMFARVILYTDEHIEENLKSEEAAAQIGMSRSYFSTRFKEMTGDTFHNYVISRKMYAAAQKMAKGTENITQIASNLGYDNFYYFTKVFSKEYGCMPTEYVGRIKKCSI”, “not soluble”.
Consider “MREDNQSLSHTTWNCKYHIVFAPKYRRQIIYGRYKASIGRIIRDLCERKGVIIHEANACSDHIHMLISIPPKLSVSSFMGYLKGKSSLMIFDKHANLKYKYGNRKFWCRGYYVDTVGRNQKVIAEYIQNQLQEDRVADQLTLFESVDPFTGEINKRK”, for which the “soluble on expression in E. coli” value was “not soluble”.
Take “AIETETLVVGAGPGGYVAAIRAAQLGQKVTIVEKGNLGGVCLNVGCIPSKALISASHRYEQAKHSEEMGIKAENVTIDFAKVQEWKASVVKKLTGGVEGLLKGNKVEIVKGEAYFVDANTVRVVNGDSAQTYTFKNAIIATGSRPIELPNFKFSNRILDSTGALNLGEVPKSLVVIGGGYIGIELGTAYANFGTKVTILEGAGEILSGFEKQMAAIIKKRLKKKGVEVVTNALAKGAEEREDGVTVTYEANGETKTIDADYVLVTVGRRPNTDELGLEQIGIKMTNRGLIEVDQQCRTSVPNIFAIGDIVPGPALAHKASYEGKVAAEAIAGHPSAVDYVAIPAVVFSDPECASVGYFEQQAKDEGIDVIAAKFPFAANGRALALNDTDGFLKLVVRKEDGVIIGAQIIGPNASDMIAELGLAIEAGMTAEDIALTIHAHPTLGEIAMEAAEVAL”: the “soluble on expression in E. coli” value is “soluble”.
For “MSLRTKSWTDDLKVCNQTGVGEAINQIYKDDGRRCEGYESRDKKCLCISDNNTSLYAILSGHNGVTVAENALQEMAAELLLGQLNVCNTDEAVKELIRQSFMSVEKGYFDSINPHVATKTAIQLHLSADGMNQYEISQQFENVLQKLDSLNNALSVGSSAVLALIHRSHLYLGNIGNCRALLCKTDEHDTLTVTQLSVDHNLLNAEEAARLFRLGLMAQNFEGVPLYSTRCIGNYLGKAGYKDCNFLSSATAEPVIFEPEIVGGIQITPACRFLVLMSSGLCRALHEIFPGDASTGNRELVRMISEEFQNQSTLGGVAQSVVHRIVQAHHDTYMQLVEEHRSVTFNSRDDVTLLIRNFNYAEGHHHHHH” the value was “soluble”; for “DLKYILETKLEEERNHLEELLEKVEEDYEGINYDEVLEALKLFKDNYELPKSKIKRKIRIFLIKENILFLNPQKGTLKPQSYLVWNAIKRML”, “soluble”.
